Where “and” joins values, the source holds several entries; their conditions need not be identical. Identical values can stand only once.
T1: CcmK2 (Synechocystis sp. PCC6803), FLAG tag removed by TEV protease (Synechocystis sp. PCC6803, UniProt P72761 1-103)
T1 construct: CcmK2, BMC-H carboxysome shell protein of Synechocystis sp; PCC 6803; monomer masses in native MS indicate loss of the first methionine; Residues left after TEV cleavage are in S1 List; source: E. coli BL21(DE3), co-expressed with K1-His4, co-purified on TALON, tag removed with TEV protease; not shown: FLAG, C-terminal, cleaved
T1 sequence (looked up): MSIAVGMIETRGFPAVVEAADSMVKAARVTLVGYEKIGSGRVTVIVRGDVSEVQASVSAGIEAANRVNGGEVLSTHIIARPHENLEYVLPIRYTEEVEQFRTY

B1: CcmK1 (Synechocystis sp. PCC6803), His4 tag removed by TEV protease (natural protein, UniProt P72760 1-111, looked up)
chain: MSIAVGMIETLGFPAVVEAADSMVKAARVTLVGYEKIGSGRVTVIVRGDVSEVQASVTAGIENIRRVNGGEVLSNHIIARPHENLEYVLPIRYTEAVEQFREIVNPSIIRR
notes: CcmK1, BMC-H carboxysome shell protein of Synechocystis sp; PCC 6803; monomer masses in native MS indicate loss of the first methionine; In native MS it came from K1-His4 co-expressed with K2-FLAG; Residues left after TEV cleavage are in S1 List; also called untagged K1; source: E. coli BL21(DE3), TALON-purified, tag removed with TEV protease; not shown: His4, C-terminal, cleaved
B2: CcmK3 (Synechocystis sp. PCC6803), FLAG tag removed by TEV protease (natural protein, UniProt P73406 1-103, looked up)
chain: MPQAVGVIQTLGFPSVLAAADAMLKGGRVTLVYYDLAERGNFVVAIRGPVSEVNLSMKMGLAAVNESVMGGEIVSHYIVPNPPENVLAVLPVEYTEKVARFRT
notes: CcmK3, BMC-H carboxysome shell protein of Synechocystis sp; PCC 6803; monomer mass agrees with loss of the first methionine; Residues left after TEV cleavage are in S1 List; also called TEV-untagged K3-FLAG; source: E. coli BL21(DE3), co-expressed with His4-K4, co-purified on TALON, tag removed with TEV protease; not shown: FLAG, C-terminal, cleaved
B3: CcmK4 (Synechocystis sp. PCC6803), His4 tag removed by TEV protease (natural protein, UniProt P73407 1-112, looked up)
chain: MSAQSAVGSIETIGFPGILAAADAMVKAGRITIVGYIRAGSARFTLNIRGDVQEVKTAMAAGIDAINRTEGADVKTWVIIPRPHENVVAVLPIDFSPEVEPFREAAEGLNRR
notes: CcmK4, BMC-H carboxysome shell protein of Synechocystis sp; PCC 6803; In native MS it came from His4-K4 co-expressed with K3-FLAG; The untagged K4 homo-hexamer of the exchange experiment was made from a His4-tagged K4 expressed alone; Residues left after TEV cleavage are in S1 List; also called untagged K4; TEV-untagged His4-K4; source: E. coli BL21(DE3), TALON-purified, tag removed with TEV …
B4: His4-CcmK4 (Synechocystis sp. PCC6803 CcmK4, N-ter His4 tag) (natural protein, UniProt P73407 1-112, looked up)
chain: B3 chain
notes: CcmK4, BMC-H carboxysome shell protein of Synechocystis sp; PCC 6803; The crystallised sample came from His4-K4/K3-FLAG; no tag removal is told for it; also called His4-K4; source: E. coli BL21(DE3), co-expressed (pET26b-based plasmid, two or four cassettes), soluble fraction of the lysate; TALON-purified (pIsep-FPLC for crystallisation); not shown: His4, N-terminal, kept

How the values were obtained:
[1] = molecular target: T1, CcmK2 (Synechocystis sp. PCC6803), FLAG …; test: native MS; TALON-purified co-expressed samples, tags removed with TEV protease; 150 mM ammonium acetate pH 8; positive-ion native ESI-MS with collision induced dissociation of selected hexamers; conditions: both partners purified
[2] = molecular target: B3; test: as above; conditions: both partners purified
[3] = molecular target: the molecule itself; test: as above
[4] = molecular target: the molecule itself; test: crystal structure; pIsep-FPLC fractions of His4-CcmK4/CcmK3-FLAG at 2.9 mg/mL; 22% PEG 4000, 0.2 M ammonium sulfate, 0.1 M sodium acetate pH 4.6, 12 C; only CcmK4 found in the crystal

## B1
[1]
  stoichiometry N: 0.2 K1:K2 in the hexamer (1:5) and 2 K1:K2 in the hexamer (4:2)

## B2
[2]
  stoichiometry N: 0.2 K3:K4 in the hexamer (1:5) and 0.5 K3:K4 in the hexamer (2:4)

## B3
[3]
  stoichiometry N: 6 subunits

## B4
[4]
  stoichiometry N: 6 subunits

— paper PMC6788708, “Occurrence and stability of hetero-hexamer associations formed by β-carboxysome CcmK shell components” (PLoS ONE, 2019)
